This is an account of results in patent publication US20130315914A1 (NOVIMMUNE, published 2013).

For experiment [1], the target named is T1, soluble histidine-tagged form of human TLR4/MD2 complex (human, UniProt Q9Y6Y9 19-160). The experiment can be described thus: competitive ELISA; 15C1 reference EC50 divided by variant EC50. The method, then: (§1) The VH and VL cDNA sequences in their appropriate expression vectors were transfected into mammalian cells using the Fugene 6 Transfection Reagent (Roche, Basel, Switzerland). Briefly, Peak cells were cultured in 6-well plates at a concentration of 6×10⁵ cells per well in 2 mL culture media containing fetal bovine serum. The expression vectors, encoding the candidate VH and VL sequences, were co-transfected into the cells using the Fugene 6 Transfection Reagent according to manufacturer's instructions. One day following transfection, the culture media was aspirated, and 3 mL of fresh serum-free media was added to cells and cultured for three days at 37° C. Following three days culture period, the supernatant was harvested for IgG purified on protein G-Sepharose 4B fast flow columns (Sigma, St. Louis, Mo.) according to manufacturer's instructions. Briefly, supernatants from transfected cells were incubated overnight at 4° C. with ImmunoPure (G) IgG binding buffer (Pierce, Rockford Ill.). Samples were then passed over Protein G-Sepharose 4B fast flow columns and the IgG consequently purified using elution buffer. The eluted IgG fraction was then dialyzed against PBS and the IgG content quantified by absorption at 280 nm. Purity and IgG integrity were verified by SDS-PAGE. Relative binding potency of 1E11 variants was assessed by competitive ELISA. Briefly, 15C1 antibody was coated overnight in a 96-well Maxisorp plate and then blocked with PBS-BSA. The 15C1 reference antibody and affinity matured variants of 1E11 were added to the plate at a fixed concentration and a 3.5-fold serial dilution of the samples was performed. Then, soluble histidine-tagged form of human TLR4/MD2 complex was added to the plate at a fixed concentration. After incubation one hour at 37° C., the plate was washed and a solution of Penta-His-HRP antibody was distributed, this step was followed by an additional incubation time of one hour at 37° C. Finally, the plate was washed and TMB was added for colorimetric revelation, the enzymatic reaction is stopped by H₂SO₄ solution. The results were determined according to the absorbance at 450 nm. The relative binding potency was calculated by dividing the reference EC₅₀ with affinity matured variants EC₅₀ (Table 8).
(In an ELISA, binding on a coated surface is turned into a signal by an enzyme label.)

In experiment [2] the target is T2, cynomolgus monkey TLR4 expressed on stably transfected CHO-K1 cells (cynomolgus monkey, UniProt Q9TSP2 24-826 (Papio anubis entry)).
T2 construct: Transfected alone; also called CHO cells expressing the cynomolgus monkey TLR4
T2 chain: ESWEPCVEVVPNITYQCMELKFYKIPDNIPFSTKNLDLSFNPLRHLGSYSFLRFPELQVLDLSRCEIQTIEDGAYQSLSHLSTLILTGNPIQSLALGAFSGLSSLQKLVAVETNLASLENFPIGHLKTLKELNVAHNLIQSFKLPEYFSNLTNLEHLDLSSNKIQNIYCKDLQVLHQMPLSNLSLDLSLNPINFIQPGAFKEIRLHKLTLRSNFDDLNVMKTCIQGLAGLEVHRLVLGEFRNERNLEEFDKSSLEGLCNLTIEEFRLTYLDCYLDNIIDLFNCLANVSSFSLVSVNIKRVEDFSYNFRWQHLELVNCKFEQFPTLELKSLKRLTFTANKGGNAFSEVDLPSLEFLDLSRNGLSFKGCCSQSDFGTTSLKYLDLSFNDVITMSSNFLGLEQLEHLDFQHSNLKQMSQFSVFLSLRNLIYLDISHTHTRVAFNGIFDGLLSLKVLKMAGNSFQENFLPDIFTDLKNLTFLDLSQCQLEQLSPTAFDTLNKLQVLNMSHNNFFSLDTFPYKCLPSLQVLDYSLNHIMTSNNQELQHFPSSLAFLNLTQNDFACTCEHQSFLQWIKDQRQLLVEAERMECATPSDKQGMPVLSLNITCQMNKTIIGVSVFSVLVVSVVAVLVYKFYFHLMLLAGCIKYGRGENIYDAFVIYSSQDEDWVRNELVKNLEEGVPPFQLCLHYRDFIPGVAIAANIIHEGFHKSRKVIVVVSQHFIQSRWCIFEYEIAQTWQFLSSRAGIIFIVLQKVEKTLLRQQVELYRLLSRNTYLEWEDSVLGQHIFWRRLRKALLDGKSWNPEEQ
The experiment can be described thus: summary grade (species binding potential); assay not given.

The target of experiment [3] is T1, soluble histidine-tagged form of human …. Nature of the experiment: competitive ELISA; coated 15C1 as competitor, soluble His-tagged human TLR4/MD2, Penta-His-HRP. As to the method:
as §1

By EC50 is commonly meant the concentration that produces a half-maximal response.

T1 sequence (Q9Y6Y9 19-160, one chain of several): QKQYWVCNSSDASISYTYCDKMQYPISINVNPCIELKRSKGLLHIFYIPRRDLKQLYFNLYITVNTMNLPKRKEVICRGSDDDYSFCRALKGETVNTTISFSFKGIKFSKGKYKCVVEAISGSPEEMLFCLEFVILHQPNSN

B1: 1E11.C2E1 antibody (IgG1) (antibody, V domains shown)
VH: QVQLQESGPGLVKPSDTLSLTCAVSGYPIRFGYSWHWIRQPPGKGLEWMGYIHYSGYTDFNPSLKTRITISRDTSKNQFSLKLSSVTAVDTAVYYCARKDSGNYFPYWGQGTLVTVSS
VL: EIVLTQSPDFQSVTPKEKVTITCRASQSISDHLHWYQQKPDQSPKLLIKYASHAISGVPSRFSGSGSGTDFTLTINSLEAEDAATYYCQQGNDFPVTFGGGTKVEIK
In the case of B1, the “Relative binding potency increase” value in experiment [1] amounted to 29 fold. In experiment [2], the binding result is recorded as “binds”. Also, the EC50 in experiment [3] is 0.021 µg/mL.

B2: 1E11 antibody (IgG1 reformatted) (antibody, V domains shown)
VH: QVQLQESGPGLVKPSDTLSLTCAVSGYSITGGYSWHWIRQPPGKGLEWMGYIHYSGYTDFNPSLKTRITISRDTSKNQFSLKLSSVTAVDTAVYYCARKDSGNYFPYWGQGTLVTVSS
VL: EIVLTQSPDFQSVTPKEKVTITCRASQSISDHLHWYQQKPDQSPKLLIKYASHAISGVPSRFSGSGSGTDFTLTINSLEAEDAATYYCQQGHSFPLTFGGGTKVEIKR
notes: also called 1E11 Mab
Regarding B2, in experiment [2], the binding result was “binds”.

B3: 1E11.C6 antibody (IgG1) (antibody, V domains shown)
VH: QVQLQESGPGLVKPSDTLSLTCAVSGYPIGGGYSWHWIRQPPGKGLEWMGYIHYSGYTDFNPSLKTRITISRDTSKNQFSLKLSSVTAVDTAVYYCARKDSGNYFPYWGQGTLVTVSS
VL: EIVLTQSPDFQSVTPKEKVTITCRASQSISDHLHWYQQKPDQSPKLLIKYASHAISGVPSRFSGSGSGTDFTLTINSLEAEDAATYYCQQGHSFPLTFGGGTKVEIK
For B3, the “Relative binding potency increase” value in experiment [1] was determined as 10 fold. Further, the binding result in experiment [2] is reported as “binds”. In experiment [3], the EC50 stood at 0.061 µg/mL.

B4: 1E11.E5 antibody (IgG1) (antibody, V domains shown)
VH: QVQLQESGPGLVKPSDTLSLTCAVSGYSITGGYSWHWIRQPPGKGLEWMGYIHYSGYTDFNPSLKTRITISRDTSKNQFSLKLSSVTAVDTAVYYCARKDSGNYFPYWGQGTLVTVSS
VL: EIVLTQSPDFQSVTPKEKVTITCRASQSISDHLHWYQQKPDQSPKLLIKYASHAISGVPSRFSGSGSGTDFTLTINSLEAEDAATYYCQQGYEFPLTFGGGTKVEIK
In the case of B4, the “Relative binding potency increase” value in experiment [1] was 4 fold. Moreover, the binding result in experiment [2] is recorded as “binds”. In experiment [3], the EC50 was 0.152 µg/mL.

B5: 1E11.C1 antibody (IgG1 reformatted) (antibody, V domains shown)
VH: QVQLQESGPGLVKPSDTLSLTCAVSGFPIRYGYSWHWIRQPPGKGLEWMGYIHYSGYTDFNPSLKTRITISRDTSKNQFSLKLSSVTAVDTAVYYCARKDSGNYFPYWGQGTLVTVSS
VL: EIVLTQSPDFQSVTPKEKVTITCRASQSISDHLHWYQQKPDQSPKLLIKYASHAISGVPSRFSGSGSGTDFTLTINSLEAEDAATYYCQQGHSFPLTFGGGTKVEIKR
notes: VH 67 / VL 4 are the variable domains
In the case of B5, in experiment [1], the “Relative binding potency increase” value turned out to be 12 fold. For the same molecule, the EC50 in experiment [3] is 0.052 µg/mL.

B6: 1E11.C5 antibody (IgG1) (antibody, V domains shown)
VH: QVQLQESGPGLVKPSDTLSLTCAVSGYPIWGGYSWHWIRQPPGKGLEWMGYIHYSGYTDFNPSLKTRITISRDTSKNQFSLKLSSVTAVDTAVYYCARKDSGNYFPYWGQGTLVTVSS
VL: EIVLTQSPDFQSVTPKEKVTITCRASQSISDHLHWYQQKPDQSPKLLIKYASHAISGVPSRFSGSGSGTDFTLTINSLEAEDAATYYCQQGHSFPLTFGGGTKVEIK
In the case of B6, the “Relative binding potency increase” value in experiment [1] came to 7 fold. For the same molecule, the binding result in experiment [2] is listed as “binds”. Also, the EC50 in experiment [3] is 0.087 µg/mL.

B7: 1E11.C2E5 antibody (IgG1) (antibody, V domains shown)
VH: QVQLQESGPGLVKPSDTLSLTCAVSGYPIRFGYSWHWIRQPPGKGLEWMGYIHYSGYTDFNPSLKTRITISRDTSKNQFSLKLSSVTAVDTAVYYCARKDSGNYFPYWGQGTLVTVSS
VL: EIVLTQSPDFQSVTPKEKVTITCRASQSISDHLHWYQQKPDQSPKLLIKYASHAISGVPSRFSGSGSGTDFTLTINSLEAEDAATYYCQQGYEFPLTFGGGTKVEIK
As to B7, in experiment [1], the “Relative binding potency increase” value was found to be 36 fold. Also, the binding result in experiment [2] is given as “binds”. Besides, the EC50 in experiment [3] was 0.017 µg/mL.

B8: 1E11.E2 antibody (IgG1) (antibody, V domains shown)
VH: QVQLQESGPGLVKPSDTLSLTCAVSGYSITGGYSWHWIRQPPGKGLEWMGYIHYSGYTDFNPSLKTRITISRDTSKNQFSLKLSSVTAVDTAVYYCARKDSGNYFPYWGQGTLVTVSS
VL: EIVLTQSPDFQSVTPKEKVTITCRASQSISDHLHWYQQKPDQSPKLLIKYASHAISGVPSRFSGSGSGTDFTLTINSLEAEDAATYYCQQGYDEPFTFGGGTKVEIK
B8: in experiment [1], the “Relative binding potency increase” value was 2 fold. In addition, in experiment [2], the binding result is “binds”. In addition, the concentration giving a half-maximal response (EC50) in experiment [3] amounted to 0.315 µg/mL.

B9: 1E11.E4 antibody (IgG1) (antibody, V domains shown)
VH: QVQLQESGPGLVKPSDTLSLTCAVSGYSITGGYSWHWIRQPPGKGLEWMGYIHYSGYTDFNPSLKTRITISRDTSKNQFSLKLSSVTAVDTAVYYCARKDSGNYFPYWGQGTLVTVSS
VL: EIVLTQSPDFQSVTPKEKVTITCRASQSISDHLHWYQQKPDQSPKLLIKYASHAISGVPSRFSGSGSGTDFTLTINSLEAEDAATYYCQQGYDYPLTFGGGTKVEIK
Turning to B9, the “Relative binding potency increase” value in experiment [1] was 5 fold. In addition, the binding result in experiment [2] is reported as “binds”. Besides, the EC50 in experiment [3] is 0.13 µg/mL.

B10: 1E11.C3 antibody (IgG1) (antibody, V domains shown)
VH: QVQLQESGPGLVKPSDTLSLTCAVSGYPIRHGYSWHWIRQPPGKGLEWMGYIHYSGYTDFNPSLKTRITISRDTSKNQFSLKLSSVTAVDTAVYYCARKDSGNYFPYWGQGTLVTVSS
VL: EIVLTQSPDFQSVTPKEKVTITCRASQSISDHLHWYQQKPDQSPKLLIKYASHAISGVPSRFSGSGSGTDFTLTINSLEAEDAATYYCQQGHSFPLTFGGGTKVEIK
Turning to B10, the “Relative binding potency increase” value in experiment [1] was 5 fold. Further, the binding result in experiment [2] is on record as “binds”. Also, the EC50 in experiment [3] was 0.119 µg/mL.

B11: 1E11.E1 antibody (IgG1) (antibody, V domains shown)
VH: QVQLQESGPGLVKPSDTLSLTCAVSGYSITGGYSWHWIRQPPGKGLEWMGYIHYSGYTDFNPSLKTRITISRDTSKNQFSLKLSSVTAVDTAVYYCARKDSGNYFPYWGQGTLVTVSS
VL: EIVLTQSPDFQSVTPKEKVTITCRASQSISDHLHWYQQKPDQSPKLLIKYASHAISGVPSRFSGSGSGTDFTLTINSLEAEDAATYYCQQGNDFPVTFGGGTKVEIK
Consider B11, for which, in experiment [1], the “Relative binding potency increase” value worked out at 4 fold. Further, the binding result in experiment [2] is listed as “binds”. Besides, in experiment [3], the EC50 came out at 0.157 µg/mL.

B12: 1E11.E3 antibody (IgG1) (antibody, V domains shown)
VH: QVQLQESGPGLVKPSDTLSLTCAVSGYSITGGYSWHWIRQPPGKGLEWMGYIHYSGYTDFNPSLKTRITISRDTSKNQFSLKLSSVTAVDTAVYYCARKDSGNYFPYWGQGTLVTVSS
VL: EIVLTQSPDFQSVTPKEKVTITCRASQSISDHLHWYQQKPDQSPKLLIKYASHAISGVPSRFSGSGSGTDFTLTINSLEAEDAATYYCQQGYDFPLTFGGGTKVEIK
As to B12, in experiment [1], the “Relative binding potency increase” value was 5 fold. Besides, the binding result in experiment [2] is reported as “binds”. In addition, in experiment [3], the concentration giving a half-maximal response (EC50) was 0.126 µg/mL.

B13: 1E11.C2E4 antibody (IgG1) (antibody, V domains shown)
VH: QVQLQESGPGLVKPSDTLSLTCAVSGYPIRFGYSWHWIRQPPGKGLEWMGYIHYSGYTDFNPSLKTRITISRDTSKNQFSLKLSSVTAVDTAVYYCARKDSGNYFPYWGQGTLVTVSS
VL: EIVLTQSPDFQSVTPKEKVTITCRASQSISDHLHWYQQKPDQSPKLLIKYASHAISGVPSRFSGSGSGTDFTLTINSLEAEDAATYYCQQGYDYPLTFGGGTKVEIK
B13: the “Relative binding potency increase” value in experiment [1] was 40 fold. Moreover, the binding result in experiment [2] is “binds”. Also, the EC50 in experiment [3] is 0.015 µg/mL.
